Measurements from US20220073935A1.

B1: LB-Rb (379-928) A488V (protein, part only; not given: Large BiT luciferase tag, human, UniProt P06400 379-928, looked up, part only)
chain, part: MNTIQQLMMILNSASDQPSENLISYFNNCTVNPKESILKRVKDIGYIFKEKFAKAVGQGCVEIGSQRYKLGVRLYYRVMESMLKSEEERLSIQNFSKLLNDNIFHMSLLVCALEVVMATYSRSTSQNLDSGTDLSFPWILNVLNLKAFDFYKVIESFIKAEGNLTREMIKHLERCEHRIMESLAWLSDSPLFDLIKQSKDREGPTDHLESACPLNLPLQNNHTAADMYLSPVRSPKKKGSTTRVNSTANAETQATSAFQTQKPLKSTSLSLFYKKVYRLAYLRLNTLCERLLSEHPELEHIIWTLFQHTLQNEYELMRDRHLDQIMMCSMYGICKVKNIDLKFKIIVTAYKDLPHAVQETFKRVLIKEEEYDSIIVFYNSVFMQRLKTNILQYASTRPPTLSPIPHIPRSPYKFPSSPLRIPGGNIYISPLKSPYKISEGLPTPTKMTPRSRILVSIGESFGTSEKFQKINQMVCNSDRVLKRSAEGSNPPKPLKKLRFDIEGSDEADGSKHLPGESKFQQKLAEMTSTRTRMQKQKMNDSMDTSNKEEK
B2: LB-Rb (379-928) V654M (protein, part only; not given: Large BiT luciferase tag, human, UniProt P06400 379-928, looked up, part only)
chain, part: MNTIQQLMMILNSASDQPSENLISYFNNCTVNPKESILKRVKDIGYIFKEKFAKAVGQGCVEIGSQRYKLGVRLYYRVMESMLKSEEERLSIQNFSKLLNDNIFHMSLLACALEVVMATYSRSTSQNLDSGTDLSFPWILNVLNLKAFDFYKVIESFIKAEGNLTREMIKHLERCEHRIMESLAWLSDSPLFDLIKQSKDREGPTDHLESACPLNLPLQNNHTAADMYLSPVRSPKKKGSTTRVNSTANAETQATSAFQTQKPLKSTSLSLFYKKMYRLAYLRLNTLCERLLSEHPELEHIIWTLFQHTLQNEYELMRDRHLDQIMMCSMYGICKVKNIDLKFKIIVTAYKDLPHAVQETFKRVLIKEEEYDSIIVFYNSVFMQRLKTNILQYASTRPPTLSPIPHIPRSPYKFPSSPLRIPGGNIYISPLKSPYKISEGLPTPTKMTPRSRILVSIGESFGTSEKFQKINQMVCNSDRVLKRSAEGSNPPKPLKKLRFDIEGSDEADGSKHLPGESKFQQKLAEMTSTRTRMQKQKMNDSMDTSNKEEK
B3: LB-Rb (379-928) R698W (protein, part only; not given: Large BiT luciferase tag, human, UniProt P06400 379-928, looked up, part only)
chain, part: MNTIQQLMMILNSASDQPSENLISYFNNCTVNPKESILKRVKDIGYIFKEKFAKAVGQGCVEIGSQRYKLGVRLYYRVMESMLKSEEERLSIQNFSKLLNDNIFHMSLLACALEVVMATYSRSTSQNLDSGTDLSFPWILNVLNLKAFDFYKVIESFIKAEGNLTREMIKHLERCEHRIMESLAWLSDSPLFDLIKQSKDREGPTDHLESACPLNLPLQNNHTAADMYLSPVRSPKKKGSTTRVNSTANAETQATSAFQTQKPLKSTSLSLFYKKVYRLAYLRLNTLCERLLSEHPELEHIIWTLFQHTLQNEYELMRDWHLDQIMMCSMYGICKVKNIDLKFKIIVTAYKDLPHAVQETFKRVLIKEEEYDSIIVFYNSVFMQRLKTNILQYASTRPPTLSPIPHIPRSPYKFPSSPLRIPGGNIYISPLKSPYKISEGLPTPTKMTPRSRILVSIGESFGTSEKFQKINQMVCNSDRVLKRSAEGSNPPKPLKKLRFDIEGSDEADGSKHLPGESKFQQKLAEMTSTRTRMQKQKMNDSMDTSNKEEK
B4: LB-Rb (379-928) E440K (protein, part only; not given: Large BiT luciferase tag, human, UniProt P06400 379-928, looked up, part only)
chain, part: MNTIQQLMMILNSASDQPSENLISYFNNCTVNPKESILKRVKDIGYIFKEKFAKAVGQGCVKIGSQRYKLGVRLYYRVMESMLKSEEERLSIQNFSKLLNDNIFHMSLLACALEVVMATYSRSTSQNLDSGTDLSFPWILNVLNLKAFDFYKVIESFIKAEGNLTREMIKHLERCEHRIMESLAWLSDSPLFDLIKQSKDREGPTDHLESACPLNLPLQNNHTAADMYLSPVRSPKKKGSTTRVNSTANAETQATSAFQTQKPLKSTSLSLFYKKVYRLAYLRLNTLCERLLSEHPELEHIIWTLFQHTLQNEYELMRDRHLDQIMMCSMYGICKVKNIDLKFKIIVTAYKDLPHAVQETFKRVLIKEEEYDSIIVFYNSVFMQRLKTNILQYASTRPPTLSPIPHIPRSPYKFPSSPLRIPGGNIYISPLKSPYKISEGLPTPTKMTPRSRILVSIGESFGTSEKFQKINQMVCNSDRVLKRSAEGSNPPKPLKKLRFDIEGSDEADGSKHLPGESKFQQKLAEMTSTRTRMQKQKMNDSMDTSNKEEK
B5: LB-Rb (379-928) L665R (protein, part only; not given: Large BiT luciferase tag, human, UniProt P06400 379-928, looked up, part only)
chain, part: MNTIQQLMMILNSASDQPSENLISYFNNCTVNPKESILKRVKDIGYIFKEKFAKAVGQGCVEIGSQRYKLGVRLYYRVMESMLKSEEERLSIQNFSKLLNDNIFHMSLLACALEVVMATYSRSTSQNLDSGTDLSFPWILNVLNLKAFDFYKVIESFIKAEGNLTREMIKHLERCEHRIMESLAWLSDSPLFDLIKQSKDREGPTDHLESACPLNLPLQNNHTAADMYLSPVRSPKKKGSTTRVNSTANAETQATSAFQTQKPLKSTSLSLFYKKVYRLAYLRLNTRCERLLSEHPELEHIIWTLFQHTLQNEYELMRDRHLDQIMMCSMYGICKVKNIDLKFKIIVTAYKDLPHAVQETFKRVLIKEEEYDSIIVFYNSVFMQRLKTNILQYASTRPPTLSPIPHIPRSPYKFPSSPLRIPGGNIYISPLKSPYKISEGLPTPTKMTPRSRILVSIGESFGTSEKFQKINQMVCNSDRVLKRSAEGSNPPKPLKKLRFDIEGSDEADGSKHLPGESKFQQKLAEMTSTRTRMQKQKMNDSMDTSNKEEK
B6: LB-Rb (379-928) R798Q (protein, part only; not given: Large BiT luciferase tag, human, UniProt P06400 379-928, looked up, part only)
chain, part: MNTIQQLMMILNSASDQPSENLISYFNNCTVNPKESILKRVKDIGYIFKEKFAKAVGQGCVEIGSQRYKLGVRLYYRVMESMLKSEEERLSIQNFSKLLNDNIFHMSLLACALEVVMATYSRSTSQNLDSGTDLSFPWILNVLNLKAFDFYKVIESFIKAEGNLTREMIKHLERCEHRIMESLAWLSDSPLFDLIKQSKDREGPTDHLESACPLNLPLQNNHTAADMYLSPVRSPKKKGSTTRVNSTANAETQATSAFQTQKPLKSTSLSLFYKKVYRLAYLRLNTLCERLLSEHPELEHIIWTLFQHTLQNEYELMRDRHLDQIMMCSMYGICKVKNIDLKFKIIVTAYKDLPHAVQETFKRVLIKEEEYDSIIVFYNSVFMQRLKTNILQYASTRPPTLSPIPHIPRSPYKFPSSPLQIPGGNIYISPLKSPYKISEGLPTPTKMTPRSRILVSIGESFGTSEKFQKINQMVCNSDRVLKRSAEGSNPPKPLKKLRFDIEGSDEADGSKHLPGESKFQQKLAEMTSTRTRMQKQKMNDSMDTSNKEEK
B7: LB-Rb (379-928) I724N (protein, part only; not given: Large BiT luciferase tag, human, UniProt P06400 379-928, looked up, part only)
chain, part: MNTIQQLMMILNSASDQPSENLISYFNNCTVNPKESILKRVKDIGYIFKEKFAKAVGQGCVEIGSQRYKLGVRLYYRVMESMLKSEEERLSIQNFSKLLNDNIFHMSLLACALEVVMATYSRSTSQNLDSGTDLSFPWILNVLNLKAFDFYKVIESFIKAEGNLTREMIKHLERCEHRIMESLAWLSDSPLFDLIKQSKDREGPTDHLESACPLNLPLQNNHTAADMYLSPVRSPKKKGSTTRVNSTANAETQATSAFQTQKPLKSTSLSLFYKKVYRLAYLRLNTLCERLLSEHPELEHIIWTLFQHTLQNEYELMRDRHLDQIMMCSMYGICKVKNIDLKFKINVTAYKDLPHAVQETFKRVLIKEEEYDSIIVFYNSVFMQRLKTNILQYASTRPPTLSPIPHIPRSPYKFPSSPLRIPGGNIYISPLKSPYKISEGLPTPTKMTPRSRILVSIGESFGTSEKFQKINQMVCNSDRVLKRSAEGSNPPKPLKKLRFDIEGSDEADGSKHLPGESKFQQKLAEMTSTRTRMQKQKMNDSMDTSNKEEK
B8: LB-Rb (379-928) R621S (protein, part only; not given: Large BiT luciferase tag, human, UniProt P06400 379-928, looked up, part only)
chain, part: MNTIQQLMMILNSASDQPSENLISYFNNCTVNPKESILKRVKDIGYIFKEKFAKAVGQGCVEIGSQRYKLGVRLYYRVMESMLKSEEERLSIQNFSKLLNDNIFHMSLLACALEVVMATYSRSTSQNLDSGTDLSFPWILNVLNLKAFDFYKVIESFIKAEGNLTREMIKHLERCEHRIMESLAWLSDSPLFDLIKQSKDREGPTDHLESACPLNLPLQNNHTAADMYLSPVRSPKKKGSTTSVNSTANAETQATSAFQTQKPLKSTSLSLFYKKVYRLAYLRLNTLCERLLSEHPELEHIIWTLFQHTLQNEYELMRDRHLDQIMMCSMYGICKVKNIDLKFKIIVTAYKDLPHAVQETFKRVLIKEEEYDSIIVFYNSVFMQRLKTNILQYASTRPPTLSPIPHIPRSPYKFPSSPLRIPGGNIYISPLKSPYKISEGLPTPTKMTPRSRILVSIGESFGTSEKFQKINQMVCNSDRVLKRSAEGSNPPKPLKKLRFDIEGSDEADGSKHLPGESKFQQKLAEMTSTRTRMQKQKMNDSMDTSNKEEK
B9: LB-Rb (379-928) R656W (protein, part only; not given: Large BiT luciferase tag, human, UniProt P06400 379-928, looked up, part only)
chain, part: MNTIQQLMMILNSASDQPSENLISYFNNCTVNPKESILKRVKDIGYIFKEKFAKAVGQGCVEIGSQRYKLGVRLYYRVMESMLKSEEERLSIQNFSKLLNDNIFHMSLLACALEVVMATYSRSTSQNLDSGTDLSFPWILNVLNLKAFDFYKVIESFIKAEGNLTREMIKHLERCEHRIMESLAWLSDSPLFDLIKQSKDREGPTDHLESACPLNLPLQNNHTAADMYLSPVRSPKKKGSTTRVNSTANAETQATSAFQTQKPLKSTSLSLFYKKVYWLAYLRLNTLCERLLSEHPELEHIIWTLFQHTLQNEYELMRDRHLDQIMMCSMYGICKVKNIDLKFKIIVTAYKDLPHAVQETFKRVLIKEEEYDSIIVFYNSVFMQRLKTNILQYASTRPPTLSPIPHIPRSPYKFPSSPLRIPGGNIYISPLKSPYKISEGLPTPTKMTPRSRILVSIGESFGTSEKFQKINQMVCNSDRVLKRSAEGSNPPKPLKKLRFDIEGSDEADGSKHLPGESKFQQKLAEMTSTRTRMQKQKMNDSMDTSNKEEK
B10: LB-Rb (379-928) C706F (protein, part only; not given: Large BiT luciferase tag, human, UniProt P06400 379-928, looked up, part only)
chain, part: MNTIQQLMMILNSASDQPSENLISYFNNCTVNPKESILKRVKDIGYIFKEKFAKAVGQGCVEIGSQRYKLGVRLYYRVMESMLKSEEERLSIQNFSKLLNDNIFHMSLLACALEVVMATYSRSTSQNLDSGTDLSFPWILNVLNLKAFDFYKVIESFIKAEGNLTREMIKHLERCEHRIMESLAWLSDSPLFDLIKQSKDREGPTDHLESACPLNLPLQNNHTAADMYLSPVRSPKKKGSTTRVNSTANAETQATSAFQTQKPLKSTSLSLFYKKVYRLAYLRLNTLCERLLSEHPELEHIIWTLFQHTLQNEYELMRDRHLDQIMMFSMYGICKVKNIDLKFKIIVTAYKDLPHAVQETFKRVLIKEEEYDSIIVFYNSVFMQRLKTNILQYASTRPPTLSPIPHIPRSPYKFPSSPLRIPGGNIYISPLKSPYKISEGLPTPTKMTPRSRILVSIGESFGTSEKFQKINQMVCNSDRVLKRSAEGSNPPKPLKKLRFDIEGSDEADGSKHLPGESKFQQKLAEMTSTRTRMQKQKMNDSMDTSNKEEK

What follows are molecules tested against E2F1-SB, DP1 (E2F1 fragment with C-terminal Small BiT, co-expressed with Dp-1) (human) (UniProt Q01094) (assay: NanoBiT split-luciferase complementation, cells stably expressing E2F1-SB and Dp-1; relative to WT LB-Rb).
E2F1-SB, DP1 (E2F1 fragment with C-terminal Small BiT, co-expressed with Dp-1) (human), sequence (Q01094 whole entry, chain 1 of 2, the tested form may be a part): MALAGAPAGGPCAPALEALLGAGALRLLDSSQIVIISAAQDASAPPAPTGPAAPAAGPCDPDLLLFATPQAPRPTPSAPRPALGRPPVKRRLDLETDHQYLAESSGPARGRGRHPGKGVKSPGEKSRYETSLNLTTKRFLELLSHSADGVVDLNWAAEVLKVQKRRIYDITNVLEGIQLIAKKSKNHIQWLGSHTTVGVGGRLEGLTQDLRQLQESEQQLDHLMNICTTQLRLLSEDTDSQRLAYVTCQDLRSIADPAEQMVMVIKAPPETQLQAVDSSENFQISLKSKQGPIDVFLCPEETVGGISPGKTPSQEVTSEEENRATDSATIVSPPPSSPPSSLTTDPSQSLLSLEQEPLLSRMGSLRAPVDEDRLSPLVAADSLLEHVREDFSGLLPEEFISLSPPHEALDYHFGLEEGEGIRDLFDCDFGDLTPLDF
E2F1-SB, DP1 (E2F1 fragment with C-terminal Small BiT, co-expressed with Dp-1) (human), sequence (Q14186 whole entry, chain 2 of 2, further chain, the tested form may be a part): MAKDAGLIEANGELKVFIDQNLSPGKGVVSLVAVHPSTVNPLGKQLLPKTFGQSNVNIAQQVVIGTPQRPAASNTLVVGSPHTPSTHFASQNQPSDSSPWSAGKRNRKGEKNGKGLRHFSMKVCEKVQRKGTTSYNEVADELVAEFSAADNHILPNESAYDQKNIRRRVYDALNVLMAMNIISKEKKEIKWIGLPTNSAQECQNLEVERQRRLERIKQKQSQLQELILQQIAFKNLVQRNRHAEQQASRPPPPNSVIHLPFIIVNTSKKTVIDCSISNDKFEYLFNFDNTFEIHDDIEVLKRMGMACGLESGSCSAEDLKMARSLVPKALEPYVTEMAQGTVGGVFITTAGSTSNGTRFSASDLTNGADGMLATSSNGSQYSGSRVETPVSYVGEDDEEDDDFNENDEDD

Point of comparison: B7, % (/wt) luciferase activity 7.4 % (/wt). Against it:
- LB-Rb (379-928) R798W (from UniProt P06400 379-928) — higher, 120 % (/wt)
- LB-Rb (379-928) I703del35, in-frame deletion mutant (from UniProt P06400 379-702; P06400 738-928) — higher, 8.6 % (/wt)
- LB-Rb (379-928) R661del1, out-of-frame deletion mutant (from UniProt P06400 379-660) — lower, 0.8 % (/wt)
- B1 — higher, 51 % (/wt)
- B2 — higher, 132 % (/wt)
- B3 — lower, 6.4 % (/wt)
- B4 — higher, 47 % (/wt)
- B5 — lower, 5 % (/wt)
- B6 — higher, 92 % (/wt)
- B8 — higher, 124 % (/wt)
- B9 — higher, 79 % (/wt)
- B10 — lower, 5.5 % (/wt)
